Bridges are numbered along the chain shown (N, C = ends). Where no end group is shown, it is not given here. [ ]: non-standard residue; d: D form. The star is where a group is joined. Acetyl(2-(4-imidazolyl)) = O=C(Cc1c[nH]cn1)*; Aib = CC(C)(N)C(=O)O
T1: human GIP receptor (human, UniProt P48546 22-466)
T1 sequence (looked up): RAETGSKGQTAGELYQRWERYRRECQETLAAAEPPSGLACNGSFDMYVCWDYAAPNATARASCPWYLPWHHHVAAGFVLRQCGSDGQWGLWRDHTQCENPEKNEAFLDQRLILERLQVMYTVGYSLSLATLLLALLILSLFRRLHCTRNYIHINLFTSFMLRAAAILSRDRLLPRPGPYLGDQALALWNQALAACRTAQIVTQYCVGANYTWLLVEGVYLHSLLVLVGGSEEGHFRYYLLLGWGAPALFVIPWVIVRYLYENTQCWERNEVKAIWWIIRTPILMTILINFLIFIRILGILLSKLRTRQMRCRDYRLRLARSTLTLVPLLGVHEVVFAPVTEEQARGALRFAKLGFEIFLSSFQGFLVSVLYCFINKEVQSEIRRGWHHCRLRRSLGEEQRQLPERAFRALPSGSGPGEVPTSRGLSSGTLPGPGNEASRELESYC

B1: triple agonist of SEQ ID NO: 70 (peptide)
peptide: Y[Aib]QGTFTSDYSKCLDEKRAKDFVQWLLDHHPSSGQPPPS
modifications: bridge 16-20; not fully specified (C-terminus)
B2: triple agonist of SEQ ID NO: 71 (peptide)
peptide: Y[Aib]QGTFTSDYSKYLDERACKDFVQWLLDHHPSSGQPPPS
modifications: bridge 16-20; not fully specified (C-terminus)
B3: triple agonist of SEQ ID NO: 72 (peptide)
peptide: Y[Aib]QGTFTSDCSKYLDERAAKDFVQWLLDHHPSSGQPPPS
modifications: bridge 16-20; not fully specified (C-terminus)
B4: triple agonist of SEQ ID NO: 73 (peptide)
peptide: [Acetyl(2-(4-imidazolyl))][Aib]QGTFTSDYSKYLDECRAKEFVQWLLDHHPSSGQPPPS
modifications: bridge 16-20; not fully specified (C-terminus)
B5: triple agonist of SEQ ID NO: 74 (peptide)
peptide: [Acetyl(2-(4-imidazolyl))][Aib]QGTFTSDYSKCLDEKRAKEFVQWLLDHHPSSGQPPPS
modifications: bridge 16-20; not fully specified (C-terminus)
B6: triple agonist of SEQ ID NO: 8 (peptide)
peptide: H[Aib]QGTFTSDVSKYLDGQAAQEFVAWLLKGC
modifications: not fully specified (C-terminus)
B7: triple agonist of SEQ ID NO: 75 (peptide)
peptide: Y[Aib]QGTFTSDYSKYLDEKAAKEFVQWLLDHHPSSGQPPPSC
modifications: bridge 16-20; not fully specified (C-terminus)
B8: triple agonist of SEQ ID NO: 76 (peptide)
peptide: Y[Aib]QGTFTSDYSKYLDEKRAKDFVQWLLDHHPSSGQPPPSC
modifications: bridge 16-20; not fully specified (C-terminus)
B9: triple agonist of SEQ ID NO: 77 (peptide)
peptide: Y[Aib]QGTFTSDYSKYLDEKAAKDFVQWLLDHHPSSGQPPPSC-NH2
modifications: bridge 16-20
B10: triple agonist of SEQ ID NO: 78 (peptide)
peptide: H[Aib]QGTFTSDYSKYLDEKRQKEFVQWLLDTKC
modifications: bridge 16-20; not fully specified (C-terminus)
B11: triple agonist of SEQ ID NO: 79 (peptide)
peptide: H[Aib]EGTFTSDYSIAMDEIHQKDFVNWLLAQKC
modifications: bridge 16-20; not fully specified (C-terminus)
B12: triple agonist of SEQ ID NO: 80 (peptide)
peptide: H[Aib]EGTFTSDYSIAMDEIHQKDFVDWLLAEKC
modifications: bridge 16-20; not fully specified (C-terminus)

Each binder was assayed against human GLP-1 receptor (human, UniProt P43220 24-463) (assay: cell-based or functional assay).

First: B1
Second: B2
The “in vitro Activity Compared to Native Peptide (%), vs GLP-1” value of the first is lower: 15.1% for the first, 90.1% for the second.

First: B3
Second: B4
The “in vitro Activity Compared to Native Peptide (%), vs GLP-1” value of the first is lower: 11.5% for the first, 22.6% for the second.

Compared with B5, B6 is higher in “in vitro Activity Compared to Native Peptide (%), vs GLP-1” value: 12.9% for the first, 14.2% for the second.

Compared with B7, B8 is lower in “in vitro Activity Compared to Native Peptide (%), vs GLP-1” value: 35.1% for the first, 10.3% for the second.

Going from B9 to B10, the “in vitro Activity Compared to Native Peptide (%), vs GLP-1” value rises from 38.7% to 51%.

Compared with B11, B12 is lower in “in vitro Activity Compared to Native Peptide (%), vs GLP-1” value: 41.5% for the first, 8.1% for the second.

The binders below were run against T1, human GIP receptor (assay: cell-based or functional assay).

First: B1
Second: B2
The “in vitro Activity Compared to Native Peptide (%), vs GIP” value of the first is lower: 64.4% for the first, 94.7% for the second.

Compared with B3, B4 is higher in “in vitro Activity Compared to Native Peptide (%), vs GIP” value: 1.6% for the first, 3% for the second.

Compared with B5, B6 is lower in “in vitro Activity Compared to Native Peptide (%), vs GIP” value: 1% for the first, < 0.1% for the second.

Compared with B7, B8 is lower in “in vitro Activity Compared to Native Peptide (%), vs GIP” value: 18% for the first, 11.7% for the second.

Going from B9 to B10, the “in vitro Activity Compared to Native Peptide (%), vs GIP” value falls from 35.5% to 0.12%.

First: B11
Second: B12
The “in vitro Activity Compared to Native Peptide (%), vs GIP” value of the first is higher: 1.4% for the first, 0.1% for the second.

The binders below were run against human GCG receptor (human, UniProt P47871 26-477) (assay: cell-based or functional assay).
human GCG receptor, sequence (P47871 26-477): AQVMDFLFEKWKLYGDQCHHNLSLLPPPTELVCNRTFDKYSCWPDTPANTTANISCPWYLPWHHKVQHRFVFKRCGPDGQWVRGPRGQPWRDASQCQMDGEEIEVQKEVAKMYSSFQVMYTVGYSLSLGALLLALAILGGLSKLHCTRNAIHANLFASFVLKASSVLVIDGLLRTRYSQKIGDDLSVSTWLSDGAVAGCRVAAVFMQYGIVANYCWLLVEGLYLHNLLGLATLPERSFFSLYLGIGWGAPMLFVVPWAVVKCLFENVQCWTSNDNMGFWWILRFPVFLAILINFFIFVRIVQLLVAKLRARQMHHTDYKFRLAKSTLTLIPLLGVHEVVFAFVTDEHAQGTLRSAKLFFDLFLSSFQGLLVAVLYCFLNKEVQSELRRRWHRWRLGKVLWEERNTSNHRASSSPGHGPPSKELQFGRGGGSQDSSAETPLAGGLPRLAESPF

Going from B1 to B2, the “in vitro Activity Compared to Native Peptide (%), vs Glucagon” value falls from 71.3% to 12.7%.

Going from B3 to B4, the “in vitro Activity Compared to Native Peptide (%), vs Glucagon” value rises from 1% to 5.4%.

First: B5
Second: B6
The “in vitro Activity Compared to Native Peptide (%), vs Glucagon” value of the first is higher: 0.9% for the first, 0.1% for the second.

Going from B7 to B8, the “in vitro Activity Compared to Native Peptide (%), vs Glucagon” value rises from 8.5% to 47.6%.

Going from B9 to B10, the “in vitro Activity Compared to Native Peptide (%), vs Glucagon” value rises from 12.2% to 14%.

Going from B11 to B12, the “in vitro Activity Compared to Native Peptide (%), vs Glucagon” value falls from 4.9% to 0%.

From patent publication US20250114463A1, “LIVER-TARGETED DRUG AND USE THEREOF” (HANMI PHARM. CO., LTD., priority 2021, published 2025)
